How the values were obtained:
PPARγ2 = molecular target: T1, PPARγ2 (Homo sapiens, UniProt P37231); experiment: aP2 promoter luciferase reporter, transcriptional activity of PPARγ2 in HEK-293T cells; assay type: cell-based; settings: for transcriptional activity of PPARγ2: overexpressed according to concentration, concentration-dependent manner, FIG. 1B/1C; for transcriptional activity of PPARγ2 (activity of the aP2 promoter): overexpression of 14-3-3 isoform proteins (0.5 μg), HEK-293T, 10 μM pioglitazone 24 hours, FIG. 1A
T1 construct: endogenous in cells; host or cells: HEK-293T
T1 sequence (P37231 1-505): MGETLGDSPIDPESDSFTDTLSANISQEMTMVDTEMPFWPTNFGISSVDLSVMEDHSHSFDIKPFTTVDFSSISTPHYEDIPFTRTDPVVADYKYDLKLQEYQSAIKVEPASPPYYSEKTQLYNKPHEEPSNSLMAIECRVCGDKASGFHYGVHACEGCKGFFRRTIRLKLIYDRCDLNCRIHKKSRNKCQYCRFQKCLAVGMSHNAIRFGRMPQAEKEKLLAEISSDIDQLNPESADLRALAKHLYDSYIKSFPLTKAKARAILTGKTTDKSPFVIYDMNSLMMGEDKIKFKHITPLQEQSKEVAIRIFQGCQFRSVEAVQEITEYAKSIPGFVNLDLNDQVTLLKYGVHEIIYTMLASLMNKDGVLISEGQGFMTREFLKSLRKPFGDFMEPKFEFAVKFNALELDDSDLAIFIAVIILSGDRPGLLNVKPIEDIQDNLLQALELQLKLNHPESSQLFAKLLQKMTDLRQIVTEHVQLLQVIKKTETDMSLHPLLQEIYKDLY
Protocol: The transcriptional activity of PPARγ2 plays a vital role in expression of liver diseases-associated proteins. Thus, the transcriptional activity of PPARγ2 was measured using an aP2 promoter regulated by PPARγ2, and the role of 7 types of 14-3-3 proteins was investigated.
For this, HEK-293T cells were seeded in a 12-well plate at a density of 1×10^5 cells per each well, and then transfected with an aP2 promoter construct (0.5 μg) and 14-3-3 isoform proteins (α, β, γ, δ, ε, ζ, η, θ) (0.5 μg) or si-14-3-3β and si-14-3-3γ siRNA (5 nM and 10 nM, Santa Cruz) using an E-fection plus reagent (Lugen). A ratio of DNA to the E-fection plus reagent was 1:2, and this method was performed according to a manufacturer's manual. After transfection, the corresponding cells were treated with 10 μM of pioglitazone (Pio, Santa Cruz) for 24 hours, washed with ice-cold PBS, and lysed using 80 μl/well of a reporter lysis buffer (Promega, Madison, Wis.), and the lysed cells were centrifuged at 10,000×g and 4° C. for 10 minutes to collect a supernatant, and luciferase activity was measured. As an instrument, Luminometer 20/20n (Turner Biosystems, Sunnyvale, Calif.) was used. For normalization, the cells were cotransfected with pSV40-β-galactosidase. For the collected supernatant, β-galactosidase activity was measured and the luciferase activity was revised, and the obtained values were plotted. At this time, a β-galactosidase enzyme analysis system (Promega, Madison, Wis.) was used, and analysis was performed using a DU530 spectrophotometer (Beckman Instruments, Palo Alto, Calif.).

[1] = molecular target: T2, binding between PPARγ2 and 14-3-3β (Homo sapiens, UniProt P37231); experiment: GST-pull down assay, binding between PPARγ2 and 14-3-3β (HEK-293T)
T2 construct: expressed in transfected cells; host or cells: HEK-293T
T2 sequence (P37231 1-505): T1 sequence (P37231 1-505)
T2 sequence (P31946 1-246 partner): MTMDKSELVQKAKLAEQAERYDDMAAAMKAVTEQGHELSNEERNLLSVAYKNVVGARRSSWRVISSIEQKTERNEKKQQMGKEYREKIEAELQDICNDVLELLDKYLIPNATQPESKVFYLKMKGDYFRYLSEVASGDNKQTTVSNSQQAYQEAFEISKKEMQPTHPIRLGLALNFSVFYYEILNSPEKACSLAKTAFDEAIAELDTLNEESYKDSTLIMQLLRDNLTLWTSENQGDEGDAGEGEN
Protocol: After transfection, […], washed with ice-cold PBS, and lysed using 500 μl/well of a lysis buffer (150 mM NaCl, 1 mM EDTA, 1% Nonidet P-40, 5% glycerol, 25 mM tris-HCl, pH 7.5, protease inhibitor added), and the lysed cells were centrifuged at 10,000×g and 4° C. for 10 minutes to extract proteins. Thereafter, 1,000 μg of the proteins was reacted with 20 μl of glutathione Sepharose 4B beads (GE Healthcare, Buckinghamshire, UK) for 6 hours, and then washing of the beads with 1 ml of ice-cold PBS was repeated 5 times, and the beads were boiled at 100° C. for 10 minutes, followed by 10% SDS-PAGE gel separation and western blotting. A ratio of GST antibodies (Santa Cruz) to Myc antibodies (self-production) was 1:3000. The detection of each protein was performed using West Pico ECL (Thermo scientific, Rockford, Ill.) and identified in a darkroom.
After transfection, […], washed with ice-cold PBS, and lysed using 500 μl/well of a lysis buffer (150 mM NaCl, 1 mM EDTA, 1% Nonidet P-40, 5% glycerol, 25 mM tris-HCl, pH 7.5, protease inhibitor added), and the lysed cells were centrifuged at 10,000×g and 4° C. for 10 minutes to extract proteins. […]

| Compound | transcriptional activity of PPARγ2 (PPARγ2) | transcriptional activity of PPARγ2 (activity of the aP2 promoter) (PPARγ2) | binding between PPARγ2 and 14-3-3β ([1]; 200 μM oleic acid 72 hours, FIG. 8A) | binding between 14-3-3β and PPARγ2 ([1]; expression amount of 14-3-3γ increased (HA-14-3-3γ DNA 2 and 4 μg), FIG. 5A) |
| --- | --- | --- | --- | --- |
| 14-3-3β: 14-3-3 isoform protein overexpressed by DNA transfection; increases the transcriptional activity of PPARγ2 by binding to PPARγ2 | increased | increased |  |  |
| CCCCCCCC/C=C\CCCCCCCC(=O)O [oleic acid] |  |  | increased |  |
| 14-3-3γ: 14-3-3 isoform protein overexpressed by DNA transfection; decreases the transcriptional activity of PPARγ2; proposed active ingredient | reduced | decreased |  | reduced |

Source: patent US10688197B2, “Non-alcoholic fatty liver regulator 14-3-3 protein” (Korea University Research and Business Foundation, priority 2015, dated 2020)
